These results are taken from US20250361274A1, “PEPTIDE AND PEPTIDE-CONTAINING AGENT” (PEPTIDREAM INC., priority 2022, published 2025).

One assay concerns the target T1, BMP7 (Homo sapiens, UniProt P18075).
T1 sequence (P18075 293-431): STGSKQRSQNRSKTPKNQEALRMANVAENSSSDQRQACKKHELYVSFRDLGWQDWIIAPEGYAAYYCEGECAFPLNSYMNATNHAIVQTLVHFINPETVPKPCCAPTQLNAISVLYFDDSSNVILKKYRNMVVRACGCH
In words: BMP7 signal transduction inhibitory activity: SMAD1 phosphorylation by BMP7 stimulus, A549 cells. The assay is classed as cell-based. Conditions: for aLISA BMP7: inhibition of SMAD1 phosphorylation by BMP7 stimulus, A549 cells. In outline: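 Cell line A549; stimulus BMP7 10 nM; endpoint pSMAD1. Peptide doses: three concentrations (1–1,000 nM range) or 8 × 1/3 dilutions from 100/1,000 nM.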

Another assay concerns the target T2, BMP4 (Homo sapiens, UniProt P12644).
T2 sequence (P12644 293-408): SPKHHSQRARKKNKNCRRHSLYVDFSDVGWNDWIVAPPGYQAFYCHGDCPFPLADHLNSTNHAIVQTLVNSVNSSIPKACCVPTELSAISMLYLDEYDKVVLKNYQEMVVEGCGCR
In words: BMP4 signal transduction inhibitory activity: SMAD1 phosphorylation by BMP4 stimulus, AlphaLISA SureFire, A549 cells. The assay is classed as cell-based. Conditions: for aLISA BMP4: inhibition of SMAD1 phosphorylation by BMP4 stimulus, A549 cells. In general terms: In Alpha technology, singlet oxygen from a donor bead excites a nearby acceptor bead.

Setting [1] is: BMP7 10 nM stimulus, peptide conc. in assay 1, 10, 100 nM.
Setting [2] is: BMP4 0.2 nM stimulus, peptide conc. in assay 0.2, 2, 20 nM.
Where [3] appears, read: BMP7 10 nM stimulus, peptide conc. in assay 10, 30, 90 nM.
Where [4] appears, read: BMP4 0.2 nM stimulus, peptide conc. in assay 2, 20, 200 nM.
Setting [5] is: AlphaLISA, class by peptide concentration zone.
[6] abbreviates: SMAD1 phosphorylation, BMP7 10 nM, peptide conc. in assay 1, 10, 100 nM.
Setting [7] is: SMAD1 phosphorylation, BMP4 0.2 nM, peptide conc. in assay 0.2, 2, 20 nM.

Numbered stars: 1 amine (or outer) side, 2 acyl side, 3 side chain; on linkers, the order of the positions; unused ones are H or OH. Bridge positions count the residues as written; N and C are the ends. Square brackets hold non-standard residues; d marks the D form. Ends that are not written are not given here. * marks the point of attachment. KCOpipzaa = N6-(4-(carboxymethyl)piperazine-1-carbonyl)-L-lysine, O=C(NCCCC[C@H](N[*:1])C(=O)[*:2])N1CCN(CC(=O)[*:3])CC1; X8 = 4‑(carboxymethyl)piperazine‑1‑carbonyl, O=C(O)CN1CCN(C(=O)*)CC1; Phe(4-(4-F-Ph)) = N[C@@H](Cc1ccc(-c2ccc(F)cc2)cc1)C(=O)O; 3Pal(6-Ph) = N[C@@H](Cc1ccc(-c2ccccc2)nc1)C(=O)O; Phe(4-COOH) = N[C@@H](Cc1ccc(C(=O)O)cc1)C(=O)O; NMePhe(3-Cl) = CN[C@@H](Cc1cccc(Cl)c1)C(=O)O; NMePhe(4-Me) = CN[C@@H](Cc1ccc(C)cc1)C(=O)O; Bip = N[C@@H](Cc1ccc(-c2ccccc2)cc1)C(=O)O; Phe(4-F) = N[C@@H](Cc1ccc(F)cc1)C(=O)O; Phe(4-Me) = Cc1ccc(C[C@H](N)C(=O)O)cc1; hTyr = N[C@@H](CCc1ccc(O)cc1)C(=O)O; cisHyp = O=C(O)[C@@H]1C[C@H](O)CN1; Hyp = O=C(O)[C@@H]1C[C@@H](O)CN1; NMeF = CN[C@@H](Cc1ccccc1)C(=O)O; hCit = NC(=O)NCCCC[C@H](N)C(=O)O; Aad = N[C@@H](CCCC(=O)O)C(=O)O; Cha = N[C@@H](CC1CCCCC1)C(=O)O; Cba = N[C@@H](CC1CCC1)C(=O)O; βAla = NCCC(=O)O

With “299 (ERV[Phe(4-COOH)]V[KCOpipzaa]R[3Pal(6-Ph)][KCOpipzaa]Y[Hyp][Phe(4-(4-F-Ph))]Y[Phe(4-COOH)][Phe(4-COOH)]SCG-NH2; not fully specified (N-terminus, bridges); also: cyclic peptide, ring closure not given here) [compound 299]”, in the assay with BMP7 (BMP7 10 nM stimulus, peptide conc. in assay 10, 100, 1000 nM, class symbols), the “aLIZA BMP7 (10 nM) % inh” value is “ND (the inhibitory activity was less than 30% at the maximum concentration evaluated)”. For the same substance, in the assay with BMP4 (BMP4 0.2 nM stimulus, peptide conc. in assay 0.02, 0.2, 2 nM, class symbols), the “aLIZA BMP4 (0.2 nM) % inh” value was “C (showed less than 30% of inhibitory activity in 0.2 nM-addition zone and showed 30% or more of inhibitory activity in 2 nM-addition zone)”.
In the case of “400 (FG[NMeF]G[Bip]GDE[Cha]Q[NMeF]L[cisHyp]CG-NH2) [compound 400]”, the “aLISA BMP7 (10 nM) % inh” value with BMP7 (setting [1]) was “C (showed less than 30% of inhibitory activity in a zone to which the peptide was added in an amount of 1 nM and showed 30% or more of inhibitory activity in 10 nM-addition zone)”. Also, the “aLISA BMP4 (0.2 nM) % inh” value with BMP4 (setting [2]) is listed as “ND (the inhibitory activity was less than 30% at the maximum concentration evaluated)”.
Turning to “384 (FG[NMePhe(3-Cl)]G[Bip]GDD[Cha]A[NMeF]LHCG-NH2; not fully specified) [compound 384]”, the “aLISA BMP7 (10 nM) % inh” value with BMP7 (setting [3]) is listed as “E (showed 30% or more of inhibitory activity in 10 nM-addition zone)”. Further, in the assay with BMP4 (setting [4]), the “aLISA BMP4 (0.2 nM) % inh” value was “B (showed less than 30% of inhibitory activity in 20 nM-addition zone and showed 30% or more of inhibitory activity in 200 nM-addition zone)”.
For “382 (FG[NMeF]G[Phe(4-Me)]GDD[Cha]A[NMeF]LHCG-NH2; not fully specified) [compound 382]”, the “aLISA BMP7 (10 nM) % inh” value with BMP7 (setting [3]) was “G (showed less than 30% of inhibitory activity in 30 nM-addition zone and showed 30% or more of inhibitory activity in 90 nM-addition zone)”. For the same substance, in the assay with BMP4 (setting [4]), the “aLISA BMP4 (0.2 nM) % inh” value is “ND (the inhibitory activity was less than 30% at the maximum concentration evaluated)”.
Consider “416 ([Phe(4-F)]G[NMeF]G[3Pal(6-Ph)]GDE[Cha][Aad][NMePhe(4-Me)]L[cisHyp]C-NH2; not fully specified) [compound 416]”, for which the “aLISA BMP7 (10 nM) % inh” value in the assay with BMP7 (setting [1]) is “D (showed less than 30% of inhibitory activity in 10 nM-addition zone and showed 30% or more of inhibitory activity in 100 nM-addition zone)”. In addition, the “aLISA BMP4 (0.2 nM) % inh” value with BMP4 (setting [2]) is “ND (the inhibitory activity was less than 30% at the maximum concentration evaluated)”.
As to “306 (ERV[Phe(4-COOH)][Cba][KCOpipzaa]R[3Pal(6-Ph)][KCOpipzaa]Y[Hyp][Bip]Y[Phe(4-COOH)][Phe(4-COOH)]SCG-NH2; not fully specified) [compound 306]”, the “aLIZA BMP7 (10 nM) % inh” value with BMP7 (BMP7 10 nM, peptide 10, 100, 1000 nM, Table 6) was “E (showed less than 30% of inhibitory activity in 100 nM-addition zone and showed 30% or more of inhibitory activity in 1,000 nM-addition zone)”. In the assay with BMP4 (BMP4 0.2 nM, peptide 0.02, 0.2, 2 nM, Table 6), the “aLIZA BMP4 (0.2 nM) % inh” value was “C (showed less than 30% of inhibitory activity in 0.2 nM-addition zone and showed 30% or more of inhibitory activity in 2 nM-addition zone)”.
Consider “375 ([Phe(4-Me)]G[NMeF]G[Bip]GDD[Cha]A[NMeF]LHCG-NH2; not fully specified) [compound 375]”, for which the “aLISA BMP7 (10 nM) % inh” value with BMP7 (setting [3]) was “F (showed less than 30% of inhibitory activity in 10 nM-addition zone and showed 30% or more of inhibitory activity in 30 nM-addition zone)”. Further, the “aLISA BMP4 (0.2 nM) % inh” value in the assay with BMP4 (setting [4]) is “B (showed less than 30% of inhibitory activity in 20 nM-addition zone and showed 30% or more of inhibitory activity in 200 nM-addition zone)”.
For “45 (Ac-AK(X8)VYVK(X8)K[Bip]PYP[Bip]Y[Phe(4-COOH)][Phe(4-COOH)]SCG-NH2; thioether (positions not given here); not fully specified (bridges)) [compound 45]”, the “aLISA BMP7” value with BMP7 (setting [5]) is given as “ND (the inhibitory activity was less than 30% at the maximum concentration evaluated)”. In addition, the “aLISA BMP4” value in the assay with BMP4 (setting [5]) is reported as “A (showed an inhibitory activity of 50% or more in a zone to which the peptide was added to in an amount of 0.2 nM)”.
For the substance “251 (ERVYVDR[3Pal(6-Ph)]S[hTyr]V[Bip]Y[Phe(4-COOH)][Phe(4-COOH)]SCG-NH2) [compound 251]”, the “aLIZA BMP7 (10 nM) % Inh” value in the assay with BMP7 (SMAD1 phosphorylation by BMP7 stimulus, peptide conc. in assay 10, 100, 1000 nM, class symbols) was “ND (the inhibitory activity was less than 30% at the maximum concentration evaluated)”. In the assay with BMP4 (SMAD1 phosphorylation by BMP4 stimulus, peptide conc. in assay 0.02, 0.2, 2 nM, class symbols), the “aLIZA BMP4 (0.2 nM) % Inh” value was “C (showed less than 30% of inhibitory activity in 0.2 nM-addition zone and showed 30% or more of inhibitory activity in 2 nM-addition zone)”.
With “393 (FG[NMePhe(4-Me)]G[Bip]GDD[Cha]A[NMeF]LHCG-NH2; not fully specified) [compound 393]”, in the assay with BMP7 (setting [1]), the “aLISA BMP7 (10 nM) % inh” value was “D (showed less than 30% of inhibitory activity in 10 nM-addition zone and showed 30% or more of inhibitory activity in 100 nM-addition zone)”. Besides, the “aLISA BMP4 (0.2 nM) % inh” value with BMP4 (setting [2]) is “A (showed less than 30% of inhibitory activity in 2 nM-peptide-addition zone and showed 30% or more of inhibitory activity in 20 nM-addition zone)”.
For “369 (FG[NMeF]GFGDE[Cha]Q[NMeF]L[Phe(4-COOH)]CG-NH2; not fully specified (N-terminus, bridges)) [compound 369]”, in the assay with BMP7 (setting [6]), the “aLISA BMP7 (10 nM) % inh” value was “D (showed less than 30% of inhibitory activity in 10 nM-addition zone and showed 30% or more of inhibitory activity in 100 nM-addition zone)”. Besides, the “aLISA BMP4 (0.2 nM) % inh” value with BMP4 (setting [7]) is on record as “ND (the inhibitory activity was less than 30% at the maximum concentration evaluated)”.
Take “101 ({CH2CO}-E[KCOpipzaa]VYV[KCOpipzaa]R[3Pal(6-Ph)]SYP[Bip]Y[Phe(4-COOH)][Phe(4-COOH)]SC[βAla][dE]-OH; thioether N-17; not fully specified) [compound 101]”: the “aLISA BMP7” value in the assay with BMP7 (peptides of Synthesis 2, classes A-D, ND) is “C (showed less than 50% of inhibitory activity in 10 nM-addition zone and showed 50% or more of inhibitory activity in 100 nM-addition zone)”. For the same substance, the “aLISA BMP4” value with BMP4 (peptides of Synthesis 2, classes A-C, ND) is on record as “A (showed an inhibitory activity of 50% or more in a zone to which the peptide was added to in an amount of 0.2 nM)”.
“145 ({CH2CO}-ERVYVDR[Bip]PY[hCit][Bip]Y[Phe(4-COOH)][Phe(4-COOH)]SCG-NH2; thioether N-17; not fully specified) [compound 145]”: the “aLISA BMP7” value with BMP7 (peptides of Synthesis 1, classes E, F, ND) was “E (showed 50% or more of inhibitory activity in a zone to which the peptide was added in an amount of 10 nM)”. Further, the “aLISA BMP4” value with BMP4 (peptides of Synthesis 1, classes D-F, ND) is “D (showed 50% or more of inhibitory activity in 0.2 nM-addition zone)”.
“340 (FG[NMeF]G[Bip]GDD[Cha]Q[NMeF]LHCG-NH2; not fully specified (N-terminus, bridges)) [compound 340]”: the “aLISA BMP7 (10 nM) % inh” value in the assay with BMP7 (setting [6]) was “D (showed less than 30% of inhibitory activity in 10 nM-addition zone and showed 30% or more of inhibitory activity in 100 nM-addition zone)”. For the same substance, the “aLISA BMP4 (0.2 nM) % inh” value with BMP4 (setting [7]) is “ND (the inhibitory activity was less than 30% at the maximum concentration evaluated)”.
As to “409 (FG[NMeF]G[Bip]GDE[Cha][Aad][NMeF]L[Phe(4-COOH)]C[βAla][dE]) [compound 409]”, the “aLISA BMP7 (10 nM) % inh” value with BMP7 (setting [1]) is “D (showed less than 30% of inhibitory activity in 10 nM-addition zone and showed 30% or more of inhibitory activity in 100 nM-addition zone)”. For the same substance, the “aLISA BMP4 (0.2 nM) % inh” value in the assay with BMP4 (setting [2]) was “ND (the inhibitory activity was less than 30% at the maximum concentration evaluated)”.
For the substance “401 (FG[NMeF]G[Bip]GDE[Cha][Aad][NMeF]L[Phe(4-COOH)]CG-NH2; not fully specified) [compound 401]”, in the assay with BMP7 (setting [1]), the “aLISA BMP7 (10 nM) % inh” value was “C (showed less than 30% of inhibitory activity in a zone to which the peptide was added in an amount of 1 nM and showed 30% or more of inhibitory activity in 10 nM-addition zone)”. In addition, the “aLISA BMP4 (0.2 nM) % inh” value with BMP4 (setting [2]) is “ND (the inhibitory activity was less than 30% at the maximum concentration evaluated)”.
